Experiments:
[1] = molecular target: T1, human LTβR-Ig (human, UniProt P36941 31-227); experiment: FACS (LTbR column of Table 2; format not told there)
T1 construct: Expressed and purified in house; also called hLTbR-Ig; human LTBR-Ig

[2] = molecular target: T1, human LTβR-Ig; experiment: ELISA on coated LTbR-Ig
Experimental: (§1) Human and murine ErbB2-Fc were obtained from R&D Systems. Wells of 96-well plates were coated with 2 ug/ml or 0.2 ug/ml of human or murine HER2-Fc by incubation overnight at 4-8° C. with either of these six proteins (80 ul/well of a 0.2 or 2 ug/ml solution in PBS). Wells were emptied, filled completely with a solution of PBS with 1% BSA (blocking buffer) and incubated at room temperature for 1 hour. Wells were emptied, washed twice PBS containing 0.05% Tween 20 (PBST) and filled with the samples (80 ul/well of 3× dilution series of the standard and supernatants in blocking buffer) prepared in another 96-well plate. After a 2-hour incubation at room temperature, the wells were emptied, washed three times with PBST and filled with a solution of HRP-conjugated goat pAbs anti-human kappa chain (80 ul/well of a 2000-fold dilution in blocking buffer). After 1-hour incubation, the wells were emptied and filled with a solution of HRP substrate prepared freshly. The color was left to develop for 3 minutes and was stopped by addition of an equal volume of 1N H₂SO₄. Absorbance was measured at 450 nm using a Plate Reader (SpectraMax, Molecular Devices). The data was processed and graphs were created using SoftMax Pro software.
(§2) Human and murine LTBR-Ig were expressed and purified in house.

[3] = molecular target: T2, human HVEM-Ig (human, UniProt Q92956 39-202); experiment: ELISA on coated HVEM-Ig
T2 construct: Expressed and purified in house; also called HVEM-Fc; Herpes virus entry mediator-Ig
T2 sequence (looked up): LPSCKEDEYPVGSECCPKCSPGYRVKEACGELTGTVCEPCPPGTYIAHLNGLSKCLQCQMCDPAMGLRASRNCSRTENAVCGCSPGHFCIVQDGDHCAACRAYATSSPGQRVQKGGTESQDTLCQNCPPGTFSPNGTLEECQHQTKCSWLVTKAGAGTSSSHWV
Experimental: as §1
Human and murine HVEM-Ig were expressed and purified in house.

[4] = molecular target: T3, human LTBR-mIgG fusion; experiment: sandwich ELISA after incubation at 200 ng/ml in human serum (cold or 37°C overnight): HER2-Fc on the plate, human LTBR-mIgG, HRP anti-mouse IgG; the signal needs both bindings at once
T3 construct: kept apart from m25 (human Fc); not shown: exact end of the LTBR part
Experimental: An ELISA assay was developed to detect LIGHT-Ab fusions after incubation with human sera. Briefly, 200 ng/mL of LIGHT-Ab fusions were incubated overnight in human serum at 37° C. The serum was assayed in sandwich ELISA as follows. HER2-Fc was immobilized to a solid surface, and was used to capture the LIGHT-Ab fusions. The serum incubated fusion proteins were added to the solid surface. Detection was effected using a human LTBR-mIgG fusion to bind to the LIGHT moiety of the fusion. Horseradish peroxidase (HRP) labeled anti-mouse IgG was used to detect bound LIGHT-Ab fusions.

[5] = molecular target: T1, human LTβR-Ig; experiment: ELISA, huLTBR-Ig coated at 0.2 ug/ml, HRP goat anti-human kappa; the number is C of the printed 4-P fit (A 0.057, B 0.9, D 1.548, R^2 0.998); Fab-Light is BIIB71F10-132 by paragraph 502
Experimental: as §1, §2

B1: 71F10 Fab-hLIGHT fusion with the (G4S)4 linker (BIIB71F10-132) (other)
heavy: EVQLLESGGGLVQPGGSLRLSCAASGFTFSSYGMVWVRQAPGKGLEWVSSISSSGGLTWYADSVKGRFTISRDNSKNTLYLQMNSLRAEDTAVYYCASPPGIAVARDYWGQGTLVTVSSASTKGPSVFPLAPSSKSTSGGTAALGCLVKDYFPEPVTVSWNSGALTSGVHTFPAVLQSSGLYSLSSVVTVPSSSLGTQTYICNVNHKPSNTKVDKKVEPKSCDKGGGGSGGGGSGGGGSGGGGSNPAAHLTGANSSLTGSGGPLLWETQLGLAFLRGLSYHDGALVVTKAGYYYIYSKVQLGGVGCPLGLASTITHGLYKRTPRYPEELELLVSQQSPCGRATSSSRVWWDSSFLGGVVHLEAGEEVVVRVLDERLVRLRDGTRSYFGAFMV
light: DIQMTQSPSSLSASVGDRVTITCRASQGISNYLAWYQQKPGKVPKLLIYAASTLQSGVPSRFSGSGSGTDFTLTISSLQPEDVATYYCQKYNSALLTFGGGTKVEIKRTVAAPSVFIFPPSDEQLKSGTASVVCLLNNFYPREAKVQWKVDNALQSGNSQESVTEQDSKDSTYSLSSTLTLSKADYEKHKVYACEVTHQGLSSPVTKSFNRGEC
notes: Trimer of Fab-LIGHT units; also called 71F10 Fab-(G4S)4-LIGHT
Question: B1 was tested. Which EC50 [1] did it give?
Answer: 0.2 nM

Question: What about the EC50 [2] of the same binder?
Answer: 0.01 nM

Question: What about the EC50 [3] of the same binder?
Answer: 0.01 nM

Question: Does B1 bind [4]?
Answer: binds

Question: And the EC50 [5]?
Answer: 1.91 ng/mL

From patent US20130101549A1 (Biogen, published 2013)
